The values below come from patent US6225121.

The subject of this series is T1, Minos transposase (Minos-2) (Drosophila hydei).
T1 sequence: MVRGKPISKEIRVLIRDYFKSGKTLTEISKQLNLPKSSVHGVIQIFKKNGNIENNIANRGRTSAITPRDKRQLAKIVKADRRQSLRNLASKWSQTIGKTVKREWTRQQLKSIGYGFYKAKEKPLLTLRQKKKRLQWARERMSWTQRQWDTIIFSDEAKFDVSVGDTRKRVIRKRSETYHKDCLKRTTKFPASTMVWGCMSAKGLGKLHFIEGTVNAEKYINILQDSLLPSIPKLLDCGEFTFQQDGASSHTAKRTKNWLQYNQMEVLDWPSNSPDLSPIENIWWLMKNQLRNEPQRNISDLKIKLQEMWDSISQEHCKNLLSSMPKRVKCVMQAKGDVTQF
The series is described as follows: cell_activity. To be noted: HeLa stable transfectants vs transposon alone, experiment 1 (18-fold and 14.5-fold in experiments 2 and 3); source Minos copy of helper not stated; binding not ….

Substance “Minos transposon with both terminal inverted repeats, neo cargo (pMiLRneo)” registered an activity of 19 fold.
